Measurements from patent publication US20070054271A1.

Key:
[1] = biological target: putative CXCL14 receptor (CXCL14-binding cell surface protein(s)) on breast epithelial and breast cancer cells; test: Scatchard analysis of AP-CXCL14 binding to MDA-MB-231 cells in suspension, bound AP activity; low affinity site
[2] = biological target: putative CXCL14 receptor (CXCL14-binding cell surface protein(s)) on breast epithelial and breast cancer cells; test: Scatchard analysis of AP-CXCL14 binding to MDA-MB-231 cells in suspension, bound AP activity; high affinity site

alkaline phosphatase-CXCL14 (AP-CXCL14) fusion protein, AP located N-terminal of the CXCL14 (from UniProt O95715 35-111) (ligand)
Kd [1]: 567 nM
Kd [2]: 61 nM
